This note sets out measurements from patent US20200164071A1 (GENSUN BIOPHARMA, published 2020).

For assay [1], the target named is T1, human TIGIT on CHO-K1 cells (human, UniProt Q495A1 23-244).
T1 construct: also called hu TIGIT; TIGIT+CHO-K1 cells
T1 sequence: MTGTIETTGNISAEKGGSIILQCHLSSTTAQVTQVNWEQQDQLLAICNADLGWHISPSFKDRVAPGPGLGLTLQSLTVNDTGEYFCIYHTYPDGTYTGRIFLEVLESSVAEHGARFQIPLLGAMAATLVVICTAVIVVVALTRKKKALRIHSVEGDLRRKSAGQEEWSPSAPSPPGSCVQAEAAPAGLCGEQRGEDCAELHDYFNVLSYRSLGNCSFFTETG
Nature of the assay: flow cytometry blocking assay: PVR (hPVR-mIg, m14, by Examples 4 and 6) on human TIGIT CHO-K1 cells (Example 16); title: Blocking PVR binding to TIGIT. On the technique in general: Flow cytometry measures light scatter and fluorescence of single cells or particles in a stream.

Assay [2] deals with T2, human PD-1 on CHO-K1 cells (human, UniProt Q15116 25-288).
T2 construct: also called Human PD-1 transfected CHO-K1 cells
The experiment in a line: flow cytometry blocking assay: FITC human PD-L1-Fc on human PD-1 CHO-K1 cells (Examples 11 and 16); title: Blocking PD-L1 binding to PD-1. As for the experimental part: (§1) Human or Cyno PD-1 transfected CHO-K1 cells were washed with FACS buffer (0.5% BSA 2 mM EDTA in PBS) and re-suspended at a concentration of 10⁶ cells/ml. […] The cells were then washed and re-suspended in 30 μl 7 AAD solution; 35 μl 10% neutral buffered formalin solution was then added and incubated for 15 mins. before analysis using the iQue intellicyt system.

Assay [3] addresses T2, human PD-1 on CHO-K1 cells. Nature of the assay: flow cytometry blocking assay: FITC human PD-L1-Fc on human PD-1 CHO-K1 cells (Example 11). As for the experimental part:
as §1

Assay [4] addresses T2, human PD-1 on CHO-K1 cells. The experiment in a line: flow cytometry blocking assay: FITC human PD-L1-Fc on human PD-1 CHO-K1 cells (Example 11; the legend paragraph 42 calls it binding to hu PD-L1). On the procedure: as §1
In assay [5] the target is T3, cyno PD-1 on CHO-K1 cells (cyno).
T3 construct: whole, on cells; also called cyno hu PD-1; Cyno PD-1 transfected CHO-K1 cells
Nature of the assay: flow cytometry blocking assay of Example 11, PD-L1 on cyno PD-1 CHO-K1 cells; cyno taken from the legend paragraph 42 ('cyno-hu'), while Example 11 speaks of human PD-1 and human PD-L1 for this figure. On the procedure:
as §1

Assay [6] deals with T4, His tagged human PD-1 protein (human, UniProt Q15116 25-170, limits assumed).
T4 construct: also called huPD-1-His; not shown: His tag
Nature of the assay: bio-layer interferometry (Octet RED96), antibody on anti-human IgG capture biosensors, His tagged human PD-1 as analyte, 1:1 global fit (Example 12). On the procedure: […] was carried out using the Octet RED96 system (ForteBio Octet RED96 System) to characterize the binding kinetics of antibodies against His tagged human PD-1 protein. 20 nM of antibody was loaded onto the anti-human IgG capture biosensors. Association of analyte (His tagged human PD-1 protein) was observed by placing the biosensors in wells containing 2 or 3 fold serial dilution of analytes (72 nM being the highest concentration) for 5 mins. Dissociation was measured after transfer of the biosensors into kinetic buffer alone and monitoring of the interferometry signal for 10 minutes. The observed on and off rates (Ka and Kd) were fit using a 1:1 binding global fit model comprising at least 5 concentrations tested, and the equilibrium binding constant KD was then calculated.

The target of assay [7] is T2, human PD-1 on CHO-K1 cells. Nature of the assay: flow cytometry blocking assay: FITC human PD-L1-Fc on human PD-1 CHO-K1 cells (Example 11); axis: % of PD-L1 Binding Signal; first of two legend entries printed PD-05 Human. On the procedure:
as §1

Assay [8] deals with T1, human TIGIT on CHO-K1 cells. The experiment in a line: flow cytometry, CHO-K1 cells expressing full-length human TIGIT, PE F(ab')2 goat anti-human IgG Fc (Example 5). On the procedure: (§2) The mixtures were incubated at 4 C for 20 min and washed 3 times. The mixtures were stained with the secondary antibody, PE labeled F(ab′)2-Goat anti-human IgG Fc (Thermo H10104) at 4° C. for 20 min. Cells were washed and resuspended in 7AAD solution and fixed in 10% neutral buffered formalin solution for 15 minutes before analysis with the iQue Intellicyt system.

The target is the same in assay [9]. The experiment in a line: flow cytometry blocking assay: biotinylated hPVR-mIg on human TIGIT CHO-K1 cells, PE streptavidin (Examples 4 and 6). On the procedure: (§3) The cells were washed 2 times before staining with PE streptavidin (BioLegend) for 20 min at 4 C. The cells were then washed, resuspended in 30 μl 7 AAD solution, and 35 μl of 10% neutral buffered formalin solution was added. The cells were then incubated for 15 min. Flow cytometry was performed and IC50 was calculated using iQue intellicyt system.

The target is the same in assay [10]. The experiment in a line: flow cytometry competition with biotinylated hPVR-mIg on CHO-K1 cells expressing human TIGIT. On the procedure:
as §3

Assay [11] addresses T5, human TIGIT (antigen of Table 3) (human, UniProt Q495A1 23-141, limits assumed).
T5 construct: neither the method nor the antigen construct is described; limits and tags unknown; also called hu TIGIT
T5 sequence: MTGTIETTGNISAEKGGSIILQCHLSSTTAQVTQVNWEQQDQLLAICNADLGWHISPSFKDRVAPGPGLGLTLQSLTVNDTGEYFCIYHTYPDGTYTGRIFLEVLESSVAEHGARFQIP
Nature of the assay: binding kinetics, method not described (Table 3, Binding Affinity).

Assay [12] deals with T1, human TIGIT on CHO-K1 cells. The experiment in a line: flow cytometry competition assay: PVR (CD155) signal on human TIGIT CHO-K1 cells against titrated antibody (Example 3 names human PVR-human Fc, m15, with PE anti-human Fc). An excerpt: Cells were then washed with FACS buffer and then re-suspended in 7-amino-actinomycin D (7AAD) solution before analysis with iQue intellicyt system.

Assay [13] has as its target T2, human PD-1 on CHO-K1 cells. The experiment in a line: flow cytometry blocking assay: FITC human PD-L1-Fc on human PD-1 CHO-K1 cells (Examples 11 and 15); title: PD-1 Blocking Activity Screening. As for the experimental part: as §1
The target of assay [14] is T1, human TIGIT on CHO-K1 cells. The experiment in a line: flow cytometry blocking assay of Example 4: biotinylated hPVR-mIg on human TIGIT CHO-K1 cells.
Assay [15] addresses T6, cyno TIGIT on CHO-K1 cells (cyno, UniProt A0A7N9I9V4 89-312).
T6 construct: whole, on cells; also called cyno-hu TIGIT
Nature of the assay: flow cytometry, CHO-K1 cells expressing cyno TIGIT (binding assay of Example 5). On the procedure:
as §2

Assay [16] concerns the target T6, cyno TIGIT on CHO-K1 cells. Nature of the assay: flow cytometry blocking assay of Example 4: biotinylated hPVR-mIg on cyno TIGIT CHO-K1 cells.
Assay [17] has as its target T1, human TIGIT on CHO-K1 cells. Nature of the assay: flow cytometry, CHO-K1 cells expressing human TIGIT (binding assay of Example 5). On the procedure:
as §2

T2 sequence (Q15116 25-288): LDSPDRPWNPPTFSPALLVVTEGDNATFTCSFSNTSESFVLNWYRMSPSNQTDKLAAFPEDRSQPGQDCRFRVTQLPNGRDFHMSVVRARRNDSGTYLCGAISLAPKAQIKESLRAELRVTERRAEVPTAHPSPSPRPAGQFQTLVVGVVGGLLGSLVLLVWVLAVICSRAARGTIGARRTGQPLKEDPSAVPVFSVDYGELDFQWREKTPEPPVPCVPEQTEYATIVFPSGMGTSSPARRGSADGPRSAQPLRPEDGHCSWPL
T4 sequence (Q15116 25-170 limits assumed): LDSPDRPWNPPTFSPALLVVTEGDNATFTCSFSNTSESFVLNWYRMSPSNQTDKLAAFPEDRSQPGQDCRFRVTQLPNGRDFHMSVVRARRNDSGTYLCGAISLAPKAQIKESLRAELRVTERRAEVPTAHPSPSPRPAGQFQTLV
T6 sequence (A0A7N9I9V4 entry or part of it): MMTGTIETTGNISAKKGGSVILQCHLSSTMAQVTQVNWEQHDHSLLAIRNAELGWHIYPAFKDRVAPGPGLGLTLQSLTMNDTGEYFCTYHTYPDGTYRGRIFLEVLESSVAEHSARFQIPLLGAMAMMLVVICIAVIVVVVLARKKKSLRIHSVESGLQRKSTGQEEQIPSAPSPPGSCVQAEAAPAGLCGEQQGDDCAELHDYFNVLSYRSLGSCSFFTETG

B1: TP-M8T10P1 (TP-83) (bispecific antibody)
heavy: QVQLVQSGAEVKKPGASVKVSCKASGYTFTSYYMHWVRQAPGQGLEWMGIINPSGGRTSYAQMFQGRVTMTRDTSTSTVYMELSSLRSEDTAVYYCARDREEQWPVGGFDYWGQGTLVTVSS
light: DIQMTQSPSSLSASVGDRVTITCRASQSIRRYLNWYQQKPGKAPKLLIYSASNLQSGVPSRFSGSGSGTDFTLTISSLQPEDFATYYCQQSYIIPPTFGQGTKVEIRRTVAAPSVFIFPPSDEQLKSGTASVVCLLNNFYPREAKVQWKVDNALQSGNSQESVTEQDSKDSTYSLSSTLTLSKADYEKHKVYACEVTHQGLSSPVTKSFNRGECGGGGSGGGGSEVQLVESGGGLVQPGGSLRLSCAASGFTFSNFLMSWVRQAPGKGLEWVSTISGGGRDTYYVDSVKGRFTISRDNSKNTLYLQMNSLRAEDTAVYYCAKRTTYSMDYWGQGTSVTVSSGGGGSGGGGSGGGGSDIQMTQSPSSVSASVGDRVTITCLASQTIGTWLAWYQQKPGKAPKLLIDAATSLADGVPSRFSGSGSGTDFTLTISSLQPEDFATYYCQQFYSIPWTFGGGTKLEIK
notes: Anti-TIGIT x anti-PD-1; The tie is in embodiment wording ('about 80% to about 100% homologous to')
As a reminder, the IC50 is the concentration that inhibits the measured activity by half. Low values mean inhibition by little substance, high ones a need for much substance. Consider B1, for which the IC50 in assay [1] was determined as 0.21 nM; in assay [2], 1.8 nM.

B2: TP-M9T10P1 (TP-93) (bispecific antibody, human IgG4 S228P, kappa)
heavy: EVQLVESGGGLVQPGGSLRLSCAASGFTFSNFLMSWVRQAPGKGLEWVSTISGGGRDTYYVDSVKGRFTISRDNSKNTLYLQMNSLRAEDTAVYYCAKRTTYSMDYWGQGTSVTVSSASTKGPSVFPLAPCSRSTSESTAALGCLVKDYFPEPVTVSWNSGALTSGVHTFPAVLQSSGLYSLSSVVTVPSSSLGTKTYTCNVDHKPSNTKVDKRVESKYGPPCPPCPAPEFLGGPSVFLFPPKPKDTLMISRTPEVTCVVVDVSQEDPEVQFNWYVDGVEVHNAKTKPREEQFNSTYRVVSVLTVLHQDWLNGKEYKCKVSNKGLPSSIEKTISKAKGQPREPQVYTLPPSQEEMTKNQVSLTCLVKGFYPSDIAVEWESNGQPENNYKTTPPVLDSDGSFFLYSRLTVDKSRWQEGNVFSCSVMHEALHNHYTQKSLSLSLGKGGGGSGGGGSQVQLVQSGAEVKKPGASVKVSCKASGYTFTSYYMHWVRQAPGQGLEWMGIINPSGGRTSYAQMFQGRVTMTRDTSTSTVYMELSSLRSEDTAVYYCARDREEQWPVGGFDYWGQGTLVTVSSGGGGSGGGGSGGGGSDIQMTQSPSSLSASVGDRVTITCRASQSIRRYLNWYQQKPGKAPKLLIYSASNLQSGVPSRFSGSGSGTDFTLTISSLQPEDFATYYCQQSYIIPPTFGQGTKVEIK
light: DIQMTQSPSSVSASVGDRVTITCLASQTIGTWLAWYQQKPGKAPKLLIDAATSLADGVPSRFSGSGSGTDFTLTISSLQPEDFATYYCQQFYSIPWTFGGGTKLEIKRTVAAPSVFIFPPSDEQLKSGTASVVCLLNNFYPREAKVQWKVDNALQSGNSQESVTEQDSKDSTYSLSSTLTLSKADYEKHKVYACEVTHQGLSSPVTKSFNRGEC
notes: as for B1
B2: the IC50 in [1] came out at 0.4 nM; in assay [2], 1.4 nM.

B3: PD-02 mab (antibody, V domains shown)
VH: QVQLVQSGAEVKKPGASVKVSCKASDYTFTNSYLYWLRQAPGQGLEWMGGINPSNGGTNFNEKFKTRTTSTRDTSISTAYMELSRLRSDDTVVYYCTRRDYNYDGGFDSWGQGTLVTVSS
VL: DIQMTQSPSSLSASVGDRVTFTCRASSTLYSNYLHWYQQKPGKAPKLLIYRASFLASGVPSRFSGSGSGTDFTLTISSLQPEDFATYYCQQGSSIPLTFGGGTKVEIK
Broadly, the Kd is the concentration at which binding is half-saturated. Low values mean tighter binding, high ones weaker binding. By koff is commonly meant the first-order rate constant of dissociation. The term kon denotes the rate constant with which the complex forms. Lower therefore signals slow association. Regarding B3, the IC50 was found to be 2.05 nM in assay [3], 0.54 nM in [4] and 1.72 nM in [5]. In assay [6], this molecule had a Kd of 3.7 nM. Moreover, in [6], the koff is 0.000395 s⁻¹. In [6], this molecule returned a kon of 106000 M⁻¹ s⁻¹.

B4: PD-05 (antibody, V domains shown)
VH: QVQLVQSGAEVKKPGASVKVSCKASGYTFTTYYIYWVRQAPGQGLEWMGGINPGNGGTNFNEKFKIRVTMTRDTSISTAYMELSSLRSEDTAVYYCARRYHGYDGGLDYWGQGTLVTVSS
VL: DIVLTQSPASLAVSPGQRATITCRASKSVSTSGFSYIHWYQQKPGQPPKLLIYLASNLESGVPARFSGSGSGTDFTLTINPVEANDTANYYCQHTWELPNTFGGGTKVEIK
notes: also called anti-PD-1 mab PD-05
In the case of B4, the half-maximal inhibitory concentration (IC50) in [7] came to 0.56 nM; in assay [4], 0.56 nM; in assay [5], 1.6 nM.

B5: T-04 (antibody, V domains shown)
VH: EVQLVQSGAEVKKPGATVKISCKVSGYTFTDHTIHWVQQAPGKGLEWMGYIYPRDGSSKYNVKFKGRVTITADTSTDTAYMELSSLRSEDTAVYYCATGMLRWFAYWGQGTLVTVSS
VL: DIQMTQSPSSLSASVGDRVTITCKASQDVFTAVAWYQQKPGKAPKLLIYSASYRYTGVPSRFSGSGSGTDFTFTISSLQPEDIATYYCQQHYSIPLTFGAGTKLEIK
notes: Anti-human TIGIT monoclonal antibody from mouse hybridoma; also called anti-hu TIGIT mab T-04
One may read the EC50 as the midpoint of the concentration-response curve. As for B5, in [8], the concentration for a half-maximal effect (EC50) was 0.23 nM. Moreover, the “IC50 (read off the curve)” value in [9] is ~0.4 nM. The molecule also showed an IC50 in assay [10] of 0.12 to 0.31 nM. Besides, in assay [11], the affinity, expressed as Kd, was 0.67 nM; the koff was determined as 0.000538 s⁻¹; the kon came out at 809000 M⁻¹ s⁻¹. Also, in [12], the “IC50 (read off the curve)” value is ~0.3 nM.

B6: PD-01 mab (antibody, V domains shown)
VH: EVQLVESGGGLVQPGGSLRLSCAASGFTFSNFLMSWVRQAPGKGLEWVSTISGGGRDTYYVDSVKGRFTISRDNSKNTLYLQMNSLRAEDTAVYYCAKRTTYSMDYWGQGTSVTVSS
VL: DIQMTQSPSSVSASVGDRVTITCLASQTIGTWLAWYQQKPGKAPKLLIYAATSLADGVPSRFSGSGSGTDFTLTISSLQPEDFATYYCQQFYSIPWTFGGGTKLEIK
notes: also called anti-PD-1 (PD-01)
Molecule B6 displayed an IC50 in assay [3] of 2.28 nM. In addition, the “IC50 (read off the curve)” value in assay [13] was ~1 nM. Moreover, the IC50 in [2] was found to be 1.5 nM. In [6], the Kd turned out to be 2.2 nM, the off-rate constant (koff) amounted to 0.000272 s⁻¹ and the on-rate (kon) was 126000 M⁻¹ s⁻¹.

B7: T-08 (antibody, V domains shown)
VH: QVQLVQSGSELKKPGASVKVSCKASGYTFTNYGMNWVRQAPGQGLEWMGWINTYTGEPTYADDFKGRFVFSLDTSVSTAYLQISSLKAEDTAVYYCARAPPYGYDVRFAYWGQGTLVTVSS
VL: DVVMTQSPLSLPVTLGQPASISCRSSQSIVHSNGNTYLEWFQQRPGQSPRVLIYKVSDRFSGVPDRFSGSGSGTDFTLKISRVEAEDVGVYYCFQGSHVPWTFGRGTKLEIK
notes: Anti-human TIGIT monoclonal antibody from mouse hybridoma; also called anti-hu TIGIT mab T-08; anti-TIGIT (T-08)
What is called EC50 (read off the curve) is the concentration that produces a half-maximal response. B7 displayed a concentration for a half-maximal effect (EC50) in assay [8] of 0.4 nM. Further, the “IC50 (read off the curve)” value in [14] and in [16] was ~1 nM in each case. The half-maximal effective concentration (EC50 (read off the curve)) in assay [15] was ~1 nM; in assay [17], ~0.5 nM. Further, the IC50 in assay [9] is 1.2 nM; in assay [10] it was 0.4 to 1.67 nM. For the same molecule, binding in assay [11] was characterised by a dissociation constant (Kd) of 5.44 nM. The molecule further gave a koff in assay [11] of 0.00376 s⁻¹. In addition, in assay [11], the kon stood at 690000 M⁻¹ s⁻¹.
